Data published in patent US5238825A, “Preparation and use of a cyclodextrinase for preparing maltooligosaccharides” (Kikkoman Corporation, priority 1989, dated 1993).
Like-named read-outs stand apart in the source and are kept apart here.

T1: cyclodextrinase (Lysinibacillus sphaericus, UniProt Q08341)
T1 construct: is cultured in a medium to yield and accumulate said cyclodextrinase, and this enzyme is collected from the culture; made in house; host or cells: Bacillus sphaericus E-244 (FERM BP-2458), the natural wild-type producer strain; not recombinant
T1 sequence (Q08341 1-591): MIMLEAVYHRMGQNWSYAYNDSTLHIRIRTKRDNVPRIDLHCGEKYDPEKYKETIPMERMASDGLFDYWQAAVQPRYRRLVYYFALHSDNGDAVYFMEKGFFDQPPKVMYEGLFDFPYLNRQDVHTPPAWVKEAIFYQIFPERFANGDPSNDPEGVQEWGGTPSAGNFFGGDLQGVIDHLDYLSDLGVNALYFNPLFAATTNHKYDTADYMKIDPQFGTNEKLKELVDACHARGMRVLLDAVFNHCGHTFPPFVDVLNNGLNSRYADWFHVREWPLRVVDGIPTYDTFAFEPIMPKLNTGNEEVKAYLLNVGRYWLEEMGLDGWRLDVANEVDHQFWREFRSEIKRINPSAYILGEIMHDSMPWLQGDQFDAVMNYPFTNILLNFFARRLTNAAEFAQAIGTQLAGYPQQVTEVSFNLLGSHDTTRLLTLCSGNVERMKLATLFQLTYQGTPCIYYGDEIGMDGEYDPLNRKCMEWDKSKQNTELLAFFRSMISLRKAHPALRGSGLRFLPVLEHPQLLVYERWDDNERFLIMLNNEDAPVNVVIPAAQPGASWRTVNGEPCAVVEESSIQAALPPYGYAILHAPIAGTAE


Assays:
[1] = target: T1, cyclodextrinase; experiment: Substrate specificity of the present cyclodextrinase (relative hydrolysis rate); type: biochemical, Bacillus sphaericus; conditions: substrate conc. 2 mM; β-cyclodextrin = 100
Protocol: (§1) When the amount of the enzyme was small, the reducing power of the enzyme was determined according to Nelson-Somogyi's method, with glucose as standard.

[2] = target: T1, cyclodextrinase; experiment: Reaction rate parameters of the present enzyme for cyclodextrins and maltooligosaccharides; type: biochemical, Bacillus sphaericus; parameters: Vmax: unit not given here
Protocol: as §1

[3] = system: cyclodextrinase; conditions: Bacillus macerans enzyme, prior literature; cited from earlier work
[4] = system: cyclodextrinase; conditions: Bacillus coagulans enzyme, prior literature; cited from earlier work
[5] = substrate: OC[C@H]1O[C@@H]2O[C@H]3[C@H](O)[C@@H](O)[C@@H](O[C@H]4[C@H](O)[C@@H](O)[C@@H](O[C@H]5[C@H](O)[C@@H](O)[C@@H](O[C@H]6[C@H](O)[C@@H](O)[C@@H](O[C@H]7[C@H](O)[C@@H](O)[C@@H](O[C@H]8[C@H](O)[C@@H](O)[C@@H](O[C@H]1[C@H](O)[C@H]2O)O[C@@H]8CO)O[C@@H]7CO)O[C@@H]6CO)O[C@@H]5CO)O[C@@H]4CO)O[C@@H]3CO; experiment: purified protein, by the assay type; conditions: other: substrate of Bacillus sphaericus cyclodextrinase; pH 7.5; 40.0 °C
[6] = substrate: OC[C@H]1O[C@@H]2O[C@H]3[C@H](O)[C@@H](O)[C@@H](O[C@H]4[C@H](O)[C@@H](O)[C@@H](O[C@H]5[C@H](O)[C@@H](O)[C@@H](O[C@H]6[C@H](O)[C@@H](O)[C@@H](O[C@H]7[C@H](O)[C@@H](O)[C@@H](O[C@H]8[C@H](O)[C@@H](O)[C@@H](O[C@H]9[C@H](O)[C@@H](O)[C@@H](O[C@H]1[C@H](O)[C@H]2O)O[C@@H]9CO)O[C@@H]8CO)O[C@@H]7CO)O[C@@H]6CO)O[C@@H]5CO)O[C@@H]4CO)O[C@@H]3CO; experiment: purified protein, by the assay type; conditions: other: substrate of Bacillus sphaericus cyclodextrinase; pH 7.5; 40.0 °C
[7] = substrate: OC[C@H]1O[C@H](O[C@H]2[C@H](O)[C@@H](O)[C@@H](O[C@H]3[C@H](O)[C@@H](O)[C@@H](O[C@H]4[C@H](O)[C@@H](O)C(O)O[C@@H]4CO)O[C@@H]3CO)O[C@@H]2CO)[C@H](O)[C@@H](O)[C@@H]1O; experiment: purified protein, by the assay type; conditions: other: substrate of Bacillus sphaericus cyclodextrinase; pH 7.5; 40.0 °C
[8] = substrate: OC[C@H]1O[C@H](O[C@H]2[C@H](O)[C@@H](O)[C@@H](O[C@H]3[C@H](O)[C@@H](O)[C@@H](O[C@H]4[C@H](O)[C@@H](O)[C@@H](O[C@H]5[C@H](O)[C@@H](O)[C@@H](O[C@H]6[C@H](O)[C@@H](O)C(O)O[C@@H]6CO)O[C@@H]5CO)O[C@@H]4CO)O[C@@H]3CO)O[C@@H]2CO)[C@H](O)[C@@H](O)[C@@H]1O; experiment: purified protein, by the assay type; conditions: other: substrate of Bacillus sphaericus cyclodextrinase; pH 7.5; 40.0 °C
[9] = substrate: OC[C@H]1O[C@@H]2O[C@H]3[C@H](O)[C@@H](O)[C@@H](O[C@H]4[C@H](O)[C@@H](O)[C@@H](O[C@H]5[C@H](O)[C@@H](O)[C@@H](O[C@H]6[C@H](O)[C@@H](O)[C@@H](O[C@H]7[C@H](O)[C@@H](O)[C@@H](O[C@H]1[C@H](O)[C@H]2O)O[C@@H]7CO)O[C@@H]6CO)O[C@@H]5CO)O[C@@H]4CO)O[C@@H]3CO; experiment: Reaction rate parameters of the present enzyme for cyclodextrins and maltooligosaccharides; type: biochemical; conditions: other: substrate of Bacillus sphaericus cyclodextrinase; pH 7.5; 40.0 °C
[10] = substrate: OC[C@H]1O[C@H](O[C@H]2[C@H](O)[C@@H](O)[C@@H](O[C@H]3[C@H](O)[C@@H](O)[C@@H](O[C@H]4[C@H](O)[C@@H](O)[C@@H](O[C@H]5[C@H](O)[C@@H](O)C(O)O[C@@H]5CO)O[C@@H]4CO)O[C@@H]3CO)O[C@@H]2CO)[C@H](O)[C@@H](O)[C@@H]1O; experiment: as above; type: biochemical; conditions: other: substrate of Bacillus sphaericus cyclodextrinase; pH 7.5; 40.0 °C
[11] = substrate: OC[C@H]1O[C@H](O[C@H]2[C@H](O)[C@@H](O)[C@@H](O[C@H]3[C@H](O)[C@@H](O)[C@@H](O[C@H]4[C@H](O)[C@@H](O)[C@@H](O[C@H]5[C@H](O)[C@@H](O)[C@@H](O[C@H]6[C@H](O)[C@@H](O)[C@@H](O[C@H]7[C@H](O)[C@@H](O)C(O)O[C@@H]7CO)O[C@@H]6CO)O[C@@H]5CO)O[C@@H]4CO)O[C@@H]3CO)O[C@@H]2CO)[C@H](O)[C@@H](O)[C@@H]1O; experiment: as above; type: biochemical; conditions: other: substrate of Bacillus sphaericus cyclodextrinase; pH 7.5; 40.0 °C

Relative hydrolysis rate [1] | Vmax [2] | Relative value ([2]; Vmax/Km relative to β-cyclodextrin = 1.00) | Molecule | Km [3] | Km [4] | Km [5] | Km [6] | Km [7] | Km [8] | Km [9] | Km [10] | Km [11]
100% | 0.110 | 1.00 | OC[C@H]1O[C@@H]2O[C@H]3[C@H](O)[C@@H](O)[C@@H](O[C@H]4[C@H](O)[C@@H](O)[C@@H](O[C@H]5[C@H](O)[C@@H](O)[C@@H](O[C@H]6[C@H](O)[C@@H](O)[C@@H](O[C@H]7[C@H](O)[C@@H](O)[C@@H](O[C@H]8[C@H](O)[C@@H](O)[C@@H](O[C@H]1[C@H](O)[C@H]2O)O[C@@H]8CO)O[C@@H]7CO)O[C@@H]6CO)O[C@@H]5CO)O[C@@H]4CO)O[C@@H]3CO [β-cyclodextrin] | 2650 µM | 2800 µM |  |  |  |  |  |  | 
 |  |  | cyclodextrinase (Lysinibacillus sphaericus) (protein, is cultured in a medium to yield and accumulate said cyclodextrinase, and this enzyme is collected from the culture; made in house; host or cells: Bacillus sphaericus E-244 (FERM BP-2458), the natural wild-type producer strain; not recombinant) MIMLEAVYHRMGQNWSYAYNDSTLHIRIRTKRDNVPRIDLHCGEKYDPEKYKETIPMERMASDGLFDYWQAAVQPRYRRLVYYFALHSDNGDAVYFMEKGFFDQPPKVMYEGLFDFPYLNRQDVHTPPAWVKEAIFYQIFPERFANGDPSNDPEGVQEWGGTPSAGNFFGGDLQGVIDHLDYLSDLGVNALYFNPLFAATTNHKYDTADYMKIDPQFGTNEKLKELVDACHARGMRVLLDAVFNHCGHTFPPFVDVLNNGLNSRYADWFHVREWPLRVVDGIPTYDTFAFEPIMPKLNTGNEEVKAYLLNVGRYWLEEMGLDGWRLDVANEVDHQFWREFRSEIKRINPSAYILGEIMHDSMPWLQGDQFDAVMNYPFTNILLNFFARRLTNAAEFAQAIGTQLAGYPQQVTEVSFNLLGSHDTTRLLTLCSGNVERMKLATLFQLTYQGTPCIYYGDEIGMDGEYDPLNRKCMEWDKSKQNTELLAFFRSMISLRKAHPALRGSGLRFLPVLEHPQLLVYERWDDNERFLIMLNNEDAPVNVVIPAAQPGASWRTVNGEPCAVVEESSIQAALPPYGYAILHAPIAGTAE |  |  | 380 µM | 1430 µM | 1540 µM | 1110 µM | 710 µM | 950 µM | 690 µM
